Publication doi:10.1101/2021.07.06.451098

What was measured:
[1] = target: VAR2CSA ectodomain (residue 1-2630) of Plasmodium falciparum 3D7 (Plasmodium falciparum 3D7); experiment: cross-linking
[2] = target: VAR2CSA ectodomain (residue 1-2630) of Plasmodium falciparum 3D7 (Plasmodium falciparum 3D7); experiment: SEC

Q: “VAR2CSA ectodomain (residue 1-2630) of Plasmodium falciparum 3D7 (domain or fragment)” was tested. Which stoichiometry N [1] did it give?
A: The stoichiometry N was 2.

Q: What about the stoichiometry N [2] of the same substance?
A: Its stoichiometry N is 2.
